Patent US20200407436A1 (published 2020)

How the values were obtained:
[1] = target: TGF-beta produced and activated by BxPC3 cells; assay: cell-based or functional assay
mature human TGF-beta 3 [2] = target: T1, mature human TGF-beta 3 (human, UniProt P10600 301-412); assay: cell-based or functional assay
T1 sequence: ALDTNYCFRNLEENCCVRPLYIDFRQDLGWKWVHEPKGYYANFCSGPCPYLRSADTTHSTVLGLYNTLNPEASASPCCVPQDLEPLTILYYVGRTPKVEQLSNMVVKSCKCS

mature human TGF-beta 1 [3] = target: T2, mature human TGF-beta 1 (human, UniProt P01137 279-390); assay: cell-based or functional assay
mature human TGF-beta 2 [4] = target: T3, mature human TGF-beta 2 (human, UniProt P61812 303-414); assay: cell-based or functional assay
T3 sequence: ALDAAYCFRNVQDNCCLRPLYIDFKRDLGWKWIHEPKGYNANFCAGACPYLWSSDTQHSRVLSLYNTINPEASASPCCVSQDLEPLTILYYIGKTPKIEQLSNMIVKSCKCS

mature human TGF-beta 3 [5] = target: T1, mature human TGF-beta 3; assay: SPR Biacore T200, human TGF-beta amine-coupled (~20 RU), E. coli derived Fab as analyte; heterogeneous fit, component 2 (kd2; believed unoccluded)
Experimental: (§1) Human TGF-β isoforms 1, 2, and 3 (Peprotech) were immobilised on CMS Series S chip via amine coupling chemistry on Flowcell 2, 3 and 4 (respectively) to a level of approximately 20 RU. HBS-EP buffer (10 mM HEPES pH 7.4, 0.15 M NaCl, 3 mM EDTA, 0.05% Surfactant P20, GE Healthcare) was used as the running buffer. […] The surface was regenerated by 2×10 μL injection of 10 mM HCl at a flowrate of 10 uL/min.
(§2) Background subtraction binding curves were analysed using the T200 evaluation software (version 1.0; GE Healthcare) following standard procedures. Kinetic parameters were determined using heterogeneous fitting algorithm with RI=0), as described in Example 3, and the values are provided in Table 4.

mature human TGF-beta 1 [6] = target: T2, mature human TGF-beta 1; assay: as above
Experimental: as §1, §2

mature human TGF-beta 2 [7] = target: T3, mature human TGF-beta 2; assay: as above
Experimental: as §1, §2

mature human TGF-beta 3 [8] = target: T1, mature human TGF-beta 3; assay: SPR Biacore T200, human TGF-beta amine-coupled (~20 RU), E. coli derived Fab as analyte; heterogeneous fit, component 2 (KD2; believed unoccluded)
Experimental: as §1, §2

mature human TGF-beta 1 [9] = target: T2, mature human TGF-beta 1; assay: as above
Experimental: as §1, §2

mature human TGF-beta 2 [10] = target: T3, mature human TGF-beta 2; assay: as above
Experimental: as §1, §2

[11] = target: T4, full length TGF-beta 1 including the latency associated peptide (human, UniProt P01137 30-390); assay: analytical gel filtration
T4 construct: also called latent TGF-beta 1; human Latency-associated Peptide and TGF-beta 1

mature human TGF-beta 3 [12] = target: T1, mature human TGF-beta 3; assay: SPR Biacore T200, human TGF-beta amine-coupled (~20 RU), E. coli derived Fab as analyte; heterogeneous fit, component 2 (ka2; believed unoccluded)
Experimental: as §1, §2

mature human TGF-beta 1 [13] = target: T2, mature human TGF-beta 1; assay: as above
Experimental: as §1, §2

mature human TGF-beta 2 [14] = target: T3, mature human TGF-beta 2; assay: as above
Experimental: as §1, §2

[15] = target: endogenously produced TGF-beta in the RPTEC and HRF co-culture system; assay: cell-based or functional assay
mature human TGF-beta 3 [16] = target: T1, mature human TGF-beta 3; assay: cell-based or functional assay; remark: listed apart in the source
mature human TGF-beta 1 [17] = target: T2, mature human TGF-beta 1; assay: cell-based or functional assay; remark: listed apart in the source
mature human TGF-beta 2 [18] = target: T3, mature human TGF-beta 2; assay: cell-based or functional assay; remark: listed apart in the source

T2 sequence (P01137 279-390 limits assumed): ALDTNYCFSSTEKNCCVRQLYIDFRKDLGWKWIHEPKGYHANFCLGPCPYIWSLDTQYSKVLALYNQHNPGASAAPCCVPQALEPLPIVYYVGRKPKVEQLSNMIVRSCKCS
T4 sequence (P01137 30-390 limits assumed): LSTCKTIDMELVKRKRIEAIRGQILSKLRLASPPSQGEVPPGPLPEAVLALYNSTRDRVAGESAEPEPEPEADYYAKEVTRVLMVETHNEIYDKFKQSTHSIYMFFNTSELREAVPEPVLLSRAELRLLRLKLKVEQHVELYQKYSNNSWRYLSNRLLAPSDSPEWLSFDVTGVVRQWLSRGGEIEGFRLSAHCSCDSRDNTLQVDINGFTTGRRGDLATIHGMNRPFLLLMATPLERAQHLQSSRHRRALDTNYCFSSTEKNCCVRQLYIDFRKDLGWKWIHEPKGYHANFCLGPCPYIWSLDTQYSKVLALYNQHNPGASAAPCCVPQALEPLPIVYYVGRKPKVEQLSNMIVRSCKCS

- Geometric mean IC50, BxPC3 and HEK-Blue TGF-beta reporter gene co-culture assay [1]: 3.95 nM
- Geometric mean IC50, HEK-Blue TGF-beta reporter gene assay (mature human TGF-beta 3 [2]): 0.475 nM
- Geometric mean IC50, HEK-Blue TGF-beta reporter gene assay (mature human TGF-beta 1 [3]): 0.074 nM
- Geometric mean IC50, HEK-Blue TGF-beta reporter gene assay (mature human TGF-beta 2 [4]): 0.01 nM
- koff (mature human TGF-beta 3 [5]): 0.00339 s⁻¹
- koff (mature human TGF-beta 1 [6]): 5.56e-05 s⁻¹
- koff (mature human TGF-beta 2 [7]): 0.00017 s⁻¹
- Kd (mature human TGF-beta 3 [8]): 1.72 nM
- Kd (mature human TGF-beta 1 [9]): 0.0808 nM
- Kd (mature human TGF-beta 2 [10]): 0.196 nM
- binding result [11]: no binding
- kon (mature human TGF-beta 3 [12]): 2e+06 M⁻¹ s⁻¹
- kon (mature human TGF-beta 1 [13]): 704000 M⁻¹ s⁻¹
- kon (mature human TGF-beta 2 [14]): 904000 M⁻¹ s⁻¹
- Geo Mean IC50, Collagen I &III deposition, RPTEC and HRF co-culture [15]: 32.8 nM
- Geo Mean IC50, Collagen V deposition, RPTEC and HRF co-culture [15]: 56.3 nM
- Geo Mean IC50, Fibronectin deposition, RPTEC and HRF co-culture [15]: 29.7 nM
- IC50 (N = 1), Collagen I &III deposition, RPTEC and HRF co-culture [15]: 22.4 nM
- IC50 (N = 1), Collagen V deposition, RPTEC and HRF co-culture [15]: 38.9 nM
- IC50 (N = 1), Fibronectin deposition, RPTEC and HRF co-culture [15]: 32.6 nM
- IC50 (N = 2), Collagen I &III deposition, RPTEC and HRF co-culture [15]: 48 nM
- IC50 (N = 2), Collagen V deposition, RPTEC and HRF co-culture [15]: 81.6 nM
- IC50 (N = 2), Fibronectin deposition, RPTEC and HRF co-culture [15]: 27.1 nM
- Geo Mean IC50, Collagen I &III deposition, RPTEC mono-culture + TGFB3 (mature human TGF-beta 3 [16]): 81.2 nM
- Geo Mean IC50, Collagen V deposition, RPTEC mono-culture + TGFB3 (mature human TGF-beta 3 [16]): 191 nM
- Geo Mean IC50, Fibronectin deposition, RPTEC mono-culture + TGFB3 (mature human TGF-beta 3 [16]): 82.1 nM
- IC50 (N = 1), Collagen I &III deposition, RPTEC mono-culture + TGFB3 (mature human TGF-beta 3 [16]): 64.3 nM
- IC50 (N = 1), Collagen V deposition, RPTEC mono-culture + TGFB3 (mature human TGF-beta 3 [16]): 141 nM
- IC50 (N = 1), Fibronectin deposition, RPTEC mono-culture + TGFB3 (mature human TGF-beta 3 [16]): 51.5 nM
- IC50 (N = 2), Collagen I &III deposition, RPTEC mono-culture + TGFB3 (mature human TGF-beta 3 [16]): 124 nM
- IC50 (N = 2), Collagen V deposition, RPTEC mono-culture + TGFB3 (mature human TGF-beta 3 [16]): 336 nM
- IC50 (N = 2), Fibronectin deposition, RPTEC mono-culture + TGFB3 (mature human TGF-beta 3 [16]): 140 nM
- IC50 (N = 3), Collagen I &III deposition, RPTEC mono-culture + TGFB3 (mature human TGF-beta 3 [16]): 67.2 nM
- IC50 (N = 3), Collagen V deposition, RPTEC mono-culture + TGFB3 (mature human TGF-beta 3 [16]): 147 nM
- IC50 (N = 3), Fibronectin deposition, RPTEC mono-culture + TGFB3 (mature human TGF-beta 3 [16]): 76.8 nM
- Geo Mean IC50, Collagen I &III deposition, RPTEC mono-culture + TGFB1 (mature human TGF-beta 1 [17]): 11.2 nM
- Geo Mean IC50, Collagen V deposition, RPTEC mono-culture + TGFB1 (mature human TGF-beta 1 [17]): 43.7 nM
- Geo Mean IC50, Fibronectin deposition, RPTEC mono-culture + TGFB1 (mature human TGF-beta 1 [17]): 19.2 nM
- IC50 (N = 1), Collagen I &III deposition, RPTEC mono-culture + TGFB1 (mature human TGF-beta 1 [17]): 5.1 nM
- IC50 (N = 1), Collagen V deposition, RPTEC mono-culture + TGFB1 (mature human TGF-beta 1 [17]): 13.1 nM
- IC50 (N = 1), Fibronectin deposition, RPTEC mono-culture + TGFB1 (mature human TGF-beta 1 [17]): 12.6 nM
- IC50 (N = 2), Collagen I &III deposition, RPTEC mono-culture + TGFB1 (mature human TGF-beta 1 [17]): 13.8 nM
- IC50 (N = 2), Collagen V deposition, RPTEC mono-culture + TGFB1 (mature human TGF-beta 1 [17]): 92.1 nM
- IC50 (N = 2), Fibronectin deposition, RPTEC mono-culture + TGFB1 (mature human TGF-beta 1 [17]): 57.4 nM
- IC50 (N = 3), Collagen I &III deposition, RPTEC mono-culture + TGFB1 (mature human TGF-beta 1 [17]): 19.8 nM
- IC50 (N = 3), Collagen V deposition, RPTEC mono-culture + TGFB1 (mature human TGF-beta 1 [17]): 69.4 nM
- IC50 (N = 3), Fibronectin deposition, RPTEC mono-culture + TGFB1 (mature human TGF-beta 1 [17]): 9.8 nM
- Geo Mean IC50, Collagen I &III deposition, RPTEC mono-culture + TGFB2 (mature human TGF-beta 2 [18]): 0.3 nM
- Geo Mean IC50, Collagen V deposition, RPTEC mono-culture + TGFB2 (mature human TGF-beta 2 [18]): 3.1 nM
- Geo Mean IC50, Fibronectin deposition, RPTEC mono-culture + TGFB2 (mature human TGF-beta 2 [18]): 0.3 nM
- IC50 (N = 1), Collagen I &III deposition, RPTEC mono-culture + TGFB2 (mature human TGF-beta 2 [18]): < 2 nM
- IC50 (N = 1), Collagen V deposition, RPTEC mono-culture + TGFB2 (mature human TGF-beta 2 [18]): 0.52 nM
- IC50 (N = 1), Fibronectin deposition, RPTEC mono-culture + TGFB2 (mature human TGF-beta 2 [18]): 0.16 nM
- IC50 (N = 2), Collagen I &III deposition, RPTEC mono-culture + TGFB2 (mature human TGF-beta 2 [18]): 0.6 nM
- IC50 (N = 2), Collagen V deposition, RPTEC mono-culture + TGFB2 (mature human TGF-beta 2 [18]): 10.5 nM
- IC50 (N = 2), Fibronectin deposition, RPTEC mono-culture + TGFB2 (mature human TGF-beta 2 [18]): 0.76 nM
- IC50 (N = 3), Collagen I &III deposition, RPTEC mono-culture + TGFB2 (mature human TGF-beta 2 [18]): 0.13 nM
- IC50 (N = 3), Collagen V deposition, RPTEC mono-culture + TGFB2 (mature human TGF-beta 2 [18]): 5.29 nM
- IC50 (N = 3), Fibronectin deposition, RPTEC mono-culture + TGFB2 (mature human TGF-beta 2 [18]): 0.22 nM
B1: humanised antibody 4856 Fab graft gL3gH13 (Fab, V domains shown)
VH: EVQLVESGGGLVKPGGSLRLSCAASGFSLSSYDMSWVRQAPGKGLEWIGIIYGGSGSTWYASWAKGRFTISRDSAKNSVYLQMNSLRAEDTAVYYCARGRDAGAGGSRNGYSLWGQGTLVTVSS
VL: AYDMTQSPSTLSASVGDRVTITCQASESIYSGLAWYQQKPGKAPKLLIYAASDLASGVPSRFSGSGSGTEYTLTISSLQPDDFATYYCQQTWTDGGIDNPFGGGTKVEIKR
notes: Human gamma-1 CH1 (G1m17) and human C-kappa (K1m3); also called 4856gL3gH13
